From the Immune Epitope Database (IEDB)

Legend:
[1] = biological target: HLA-A*01:01; assay: IEDB peptide-MHC binding, purified MHC/direct/fluorescence; filed as Kd, often an IC50 or EC50 that approximates it; ≥ and ≤ were set here for values at or beyond the usual limits of such assays; conditions: source organism: Salmonella enterica
[2] = biological target: HLA-A*02:01; assay: as above; conditions: source organism: Salmonella enterica
[3] = biological target: HLA-A*02:11; assay: as above; conditions: source organism: Salmonella enterica subsp. enterica serovar Typhimurium str. LT2
[4] = biological target: HLA-A*02:19; assay: as above; conditions: source organism: Salmonella enterica subsp. enterica serovar Typhimurium str. LT2
[5] = biological target: HLA-A*03:01; assay: as above; conditions: source organism: Salmonella enterica
[6] = biological target: HLA-A*11:01; assay: as above; conditions: source organism: Salmonella enterica
[7] = biological target: HLA-A*23:01; assay: as above; conditions: source organism: Salmonella enterica subsp. enterica serovar Typhimurium str. LT2
[8] = biological target: HLA-A*29:02; assay: as above; conditions: source organism: Salmonella enterica subsp. enterica serovar Typhimurium str. LT2
[9] = biological target: HLA-A*31:01; assay: as above; conditions: source organism: Salmonella enterica
[10] = biological target: HLA-B*08:01; assay: as above; conditions: source organism: Salmonella enterica subsp. enterica serovar Typhimurium str. LT2
[11] = biological target: HLA-B*38:01; assay: as above; conditions: source organism: Salmonella enterica subsp. enterica serovar Typhimurium str. LT2
[12] = biological target: HLA-B*39:01; assay: as above; conditions: source organism: Salmonella enterica subsp. enterica serovar Typhimurium str. LT2
[13] = biological target: HLA-B*40:01; assay: as above; conditions: source organism: Salmonella enterica
[14] = biological target: HLA-B*46:01; assay: as above; conditions: source organism: Salmonella enterica
[15] = biological target: HLA-B*48:01; assay: as above; conditions: source organism: Salmonella enterica
[16] = biological target: HLA-B*51:01; assay: as above; conditions: source organism: Salmonella enterica subsp. enterica serovar Typhimurium str. LT2
[17] = biological target: HLA-B*58:01; assay: as above; conditions: source organism: Salmonella enterica
[18] = biological target: HLA-A*02:03; assay: IEDB peptide-MHC binding, purified MHC/competitive/fluorescence; filed as Kd, often an IC50 or EC50 that approximates it; ≥ and ≤ were set here for values at or beyond the usual limits of such assays; conditions: source organism: Salmonella enterica subsp. enterica serovar Typhimurium str. LT2
[19] = biological target: HLA-A*02:06; assay: as above; conditions: source organism: Salmonella enterica subsp. enterica serovar Typhimurium str. LT2
[20] = biological target: HLA-A*68:23; assay: as above; conditions: source organism: Salmonella enterica subsp. enterica serovar Typhimurium str. LT2
[21] = biological target: HLA-B*15:01; assay: as above; conditions: source organism: Salmonella enterica subsp. enterica serovar Typhimurium str. LT2
[22] = biological target: HLA-B*15:17; assay: as above; conditions: source organism: Salmonella enterica subsp. enterica serovar Typhimurium str. LT2
[23] = biological target: HLA-B*15:42; assay: as above; conditions: source organism: Salmonella enterica subsp. enterica serovar Typhimurium str. LT2
[24] = biological target: HLA-B*45:06; assay: as above; conditions: source organism: Salmonella enterica subsp. enterica serovar Typhimurium str. LT2
[25] = biological target: HLA-B*83:01; assay: as above; conditions: source organism: Salmonella enterica subsp. enterica serovar Typhimurium str. LT2

## FPASHMATY
[1]
  Kd: ≥ 20 µM
[2]
  Kd: ≥ 20 µM
[3]
  Kd: ≥ 20 µM
[4]
  Kd: ≥ 20 µM
[5]
  Kd: ≥ 20 µM
[6]
  Kd: ≥ 20 µM
[7]
  Kd: ≥ 20 µM
[8]
  Kd: 0.114 µM
[9]
  Kd: ≥ 20 µM
[10]
  Kd: ≥ 20 µM
[11]
  Kd: ≥ 20 µM
[12]
  Kd: ≥ 20 µM
[13]
  Kd: ≥ 20 µM
[14]
  Kd: 9 µM
[15]
  Kd: ≥ 20 µM
[16]
  Kd: ≥ 20 µM
[17]
  Kd: ≥ 20 µM
[18]
  Kd: ≥ 20 µM
[19]
  Kd: 1.29 µM
[20]
  Kd: 0.006 µM
[21]
  Kd: 0.334 µM
[22]
  Kd: ≥ 20 µM
[23]
  Kd: ≥ 5 µM
[24]
  Kd: ≥ 5 µM
[25]
  Kd: 0.22 µM
